Holding throughout (assay): method not stated for Table 5; Fc variant against Fcγ receptor
Test [1] addresses FcγRIIa-H131 (human) (UniProt P12318).
The target of test [2] is FcγRIIb (human) (UniProt P31994).
The target in test [3] is FcγRIIa-R131 (human) (UniProt P12318).
Chain of FcγRIIa-R131 (human) (P12318 34-218 H167R limits assumed): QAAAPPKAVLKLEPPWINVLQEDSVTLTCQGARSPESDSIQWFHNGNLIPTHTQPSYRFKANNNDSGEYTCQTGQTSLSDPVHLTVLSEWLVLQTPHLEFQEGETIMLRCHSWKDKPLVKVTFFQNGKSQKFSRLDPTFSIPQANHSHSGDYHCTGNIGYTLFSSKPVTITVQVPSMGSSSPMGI

Chain of FcγRIIb (human) (P31994 43-217 limits assumed): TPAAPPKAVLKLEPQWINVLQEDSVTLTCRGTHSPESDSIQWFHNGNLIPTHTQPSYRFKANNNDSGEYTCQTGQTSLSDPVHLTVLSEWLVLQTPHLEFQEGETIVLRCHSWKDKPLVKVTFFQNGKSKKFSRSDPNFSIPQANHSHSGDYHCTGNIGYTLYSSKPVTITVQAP
Chain of FcγRIIa-H131 (human) (P12318 34-218 limits assumed): as the sequence (P12318 34-218 H167R limits assumed) above, with R134H counted along it

Consider “SE Fc sequence variant (Table 5) (antibody)”, for which the Kd in test [1] was 0.52 µM; in test [2], 0.098 µM; in test [3] it was 0.022 µM.

“P238D Fc sequence variant (Table 5) (antibody)” gave a Kd in test [2] of 0.95 µM.

Take “IgG1f Fc sequence variant (Table 5) (antibody)”: the figures for the Kd in test [1], in test [2] and in test [3] were 0.53 µM, 3.9 µM and 0.85 µM, respectively.

Substance “SELF Fc sequence variant (Table 5) (antibody)” displayed a Kd in test [3] of 0.002 µM.

A word on the Kd: it is the equilibrium constant for the complex coming apart. Low readings indicate a tighter complex, high ones a looser complex.

(Values after patent publication US20180142030A1.)
